Results reported in US20230312730A1 (ATYR PHARMA, published 2023).
“And” between values parts separate entries of the source, which are not always exact repeats. Identical values can stand only once. Each block holds one molecule with its values, some of them ahead of it.

Assays:
[1] = target: human NRP2 endogenously expressed on cell lines (human) (UniProt O60462); test: flow cytometry on A549 WT cells
[2] = target: T1, human NRP2 variant 2 (NM_003872) over-expressed on Expi293-hNRP2 clonal cells (human, UniProt O60462 23-931); test: flow cytometry on Expi293-hNRP2 cells, 0.05-100 nM, anti-human Fc detection
T1 sequence: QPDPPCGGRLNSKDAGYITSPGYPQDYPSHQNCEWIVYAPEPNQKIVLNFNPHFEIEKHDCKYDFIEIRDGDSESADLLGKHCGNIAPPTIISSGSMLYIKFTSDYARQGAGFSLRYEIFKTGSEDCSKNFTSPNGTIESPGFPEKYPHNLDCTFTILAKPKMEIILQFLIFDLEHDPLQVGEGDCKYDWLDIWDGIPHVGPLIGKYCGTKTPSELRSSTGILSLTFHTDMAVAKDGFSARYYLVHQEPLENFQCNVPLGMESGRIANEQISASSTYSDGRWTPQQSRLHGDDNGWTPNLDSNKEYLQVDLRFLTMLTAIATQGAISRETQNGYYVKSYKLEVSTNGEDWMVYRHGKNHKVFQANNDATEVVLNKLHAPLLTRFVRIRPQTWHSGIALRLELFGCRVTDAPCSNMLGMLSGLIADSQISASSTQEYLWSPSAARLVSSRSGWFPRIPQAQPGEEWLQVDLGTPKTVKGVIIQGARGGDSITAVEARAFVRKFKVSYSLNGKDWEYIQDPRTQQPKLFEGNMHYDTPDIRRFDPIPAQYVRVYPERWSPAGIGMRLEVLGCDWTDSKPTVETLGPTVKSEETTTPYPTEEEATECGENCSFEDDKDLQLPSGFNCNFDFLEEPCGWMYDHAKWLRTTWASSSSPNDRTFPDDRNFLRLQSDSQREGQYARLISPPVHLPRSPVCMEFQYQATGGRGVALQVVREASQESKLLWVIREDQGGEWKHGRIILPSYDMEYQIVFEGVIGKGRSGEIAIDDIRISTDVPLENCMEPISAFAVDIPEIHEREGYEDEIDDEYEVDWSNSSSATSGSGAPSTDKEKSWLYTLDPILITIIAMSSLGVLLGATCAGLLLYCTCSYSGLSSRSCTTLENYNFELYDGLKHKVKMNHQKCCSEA
Experimental: (§1) To assess the ability of the anti-NRP2 antibodies to displace the binding of VEGF-C, Semaphorin 3F and HRS polypeptides, flow cytometry was used. Binding of recombinant human VEGF-C (R&D Cat#9199-VC-025, untagged), Sema3F-Fc (R&D Cat#9878-S3-025, Fc chimera protein) or Sema3F-p95m (prepared In-house), Myc-tagged Sema3F-p95 R583A R586A-1359) to Expi293-hNRP2 cells over expressing human NRP2 were determined by immunostaining assay as described in Example 4. Studies were conducted with cells incubated with each of these proteins at 0.05 - 100 nM at 3-fold dilutions on ice for 1 hour. Cells were then washed and stained with secondary and/or detection antibodies as described previously. […] Sema3F-Fc was detected by a Cy3-conjugated goat anti-human Fc IgG (Jackson ImmunoResearch Cat#109165098). Sema3F-p95m was detected by an AF555-conjugated anti-Myc antibody (ThermoFisher Cat#MA1980A555).
(§2) Binding curves were fit and EC₅₀ values determined as described above. VEGF-C was determined to bind to Expi293-hNRP2 cells with an EC₅₀ of 0.6 nM. Sema3F-Fc was determined to bind to Expi293-hNRP2 cells with an EC₅₀ of ^{~}8.2 nM, and Sema3F-p95m bound to Expi293-hNRP2 cells with an with EC₅₀ of 5.7 nM.

[3] = target: T1, human NRP2 variant 2 (NM_003872) …; test: flow cytometry on Expi293-hNRP2 cells, 0.05-100 nM, anti-Myc detection
Experimental: as §1, §2

[4] = target: T1, human NRP2 variant 2 (NM_003872) …; test: flow cytometry on Expi293-hNRP2 cells, 0.05-100 nM, rabbit anti-VEGF-C detection
Experimental: as §1, §2

- Fold change of a-NRP2 to Ctl (FC) [1]: 2.6 fold and 1.8 fold
Molecule: C9-AF647 Santa Cruz Biotech anti-NRP2 antibody

- EC50 [3]: 5.7 nM
B2: Sema3F-p95m (Myc-tagged Sema3F-p95 R583A R586A-1359) (ligand, UniProt Q13275 19-779, looked up)
chain: SFPTQDHLPATPRVRLSFKELKATGTAHFFNFLLNTTDYRILLKDEDHDRMYVGSKDYVLSLDLHDINREPLIIHWAASPQRIEECVLSGKDVNGECGNFVRLIQPWNRTHLYVCGTGAYNPMCTYVNRGRRAQATPWTQTQAVRGRGSRATDGALRPMPTAPRQDYIFYLEPERLESGKGKCPYDPKLDTASALINEELYAGVYIDFMGTDAAIFRTLGKQTAMRTDQYNSRWLNDPSFIHAELIPDSAERNDDKLYFFFRERSAEAPQSPAVYARIGRICLNDDGGHCCLVNKWSTFLKARLVCSVPGEDGIETHFDELQDVFVQQTQDVRNPVIYAVFTSSGSVFRGSAVCVYSMADIRMVFNGPFAHKEGPNYQWMPFSGKMPYPRPGTCPGGTFTPSMKSTKDYPDEVINFMRSHPLMYQAVYPLQRRPLVVRTGAPYRLTTIAVDQVDAADGRYEVLFLGTDRGTVQKVIVLPKDDQELEELMLEEVEVFKDPAPVKTMTISSKRQQLYVASAVGVTHLSLHRCQAYGAACADCCLARDPYCAWDGQACSRYTASSKRASRAQDVRHGNPIRQCRGFNSNANKNAVESVQYGVAGSAAFLECQPRSPQATVKWLFQRDPGDRRREIRAEDRFLRTEQGLLLRALQLSDRGLYSCTATENNFKHVVTRVQLHVLGRDAVHAALFPPLSMSAPPPPGAGPPTPPYQELAQLLAQPEVGLIHQYCQGYWRHVPPSPREAPGAPRSPEPQDQKKPRNRR
notes: not shown: Myc tag

- EC50 [4]: 0.6 nM
B3: recombinant human VEGF-C (R&D Systems #9199-VC) (ligand, UniProt P49767 103-227, looked up)
chain: TEETIKFAAAHYNTEILKSIDNEWRKTQCMPREVCIDVGKEFGVATNTFFKPPCVSVYRCGGCCNSEGLQCMNTSTSYLSKTLFEITVPLSQGPKPVTISFANHTSCRCMSKLDVYRQVHSIIRR
notes: Bought reagent

Further lines, the molecule ahead of its results:

Molecule: C9-PE Santa Cruz Biotech anti-NRP2 antibody
- Fold change of a-NRP2 to Ctl (FC) [1]: 6 fold

B1: Human SEMA3F-Fc (R&D Systems #9878-S3) (Fc fusion, UniProt Q13275 19-779, looked up)
chain: SFPTQDHLPATPRVRLSFKELKATGTAHFFNFLLNTTDYRILLKDEDHDRMYVGSKDYVLSLDLHDINREPLIIHWAASPQRIEECVLSGKDVNGECGNFVRLIQPWNRTHLYVCGTGAYNPMCTYVNRGRRAQATPWTQTQAVRGRGSRATDGALRPMPTAPRQDYIFYLEPERLESGKGKCPYDPKLDTASALINEELYAGVYIDFMGTDAAIFRTLGKQTAMRTDQYNSRWLNDPSFIHAELIPDSAERNDDKLYFFFRERSAEAPQSPAVYARIGRICLNDDGGHCCLVNKWSTFLKARLVCSVPGEDGIETHFDELQDVFVQQTQDVRNPVIYAVFTSSGSVFRGSAVCVYSMADIRMVFNGPFAHKEGPNYQWMPFSGKMPYPRPGTCPGGTFTPSMKSTKDYPDEVINFMRSHPLMYQAVYPLQRRPLVVRTGAPYRLTTIAVDQVDAADGRYEVLFLGTDRGTVQKVIVLPKDDQELEELMLEEVEVFKDPAPVKTMTISSKRQQLYVASAVGVTHLSLHRCQAYGAACADCCLARDPYCAWDGQACSRYTASSKRRSRRQDVRHGNPIRQCRGFNSNANKNAVESVQYGVAGSAAFLECQPRSPQATVKWLFQRDPGDRRREIRAEDRFLRTEQGLLLRALQLSDRGLYSCTATENNFKHVVTRVQLHVLGRDAVHAALFPPLSMSAPPPPGAGPPTPPYQELAQLLAQPEVGLIHQYCQGYWRHVPPSPREAPGAPRSPEPQDQKKPRNRR
notes: Bought reagent; not shown: Fc of the bought chimera (detected with anti-human Fc)
- EC50 [2]: ~8.2 nM
